Measured values reported in US20050255464A1, “Methods for the identification of peptidyl compounds interacting with extracellular target molecules” (priority 2001, published 2005).

Target: fusion protein encoded by plasmid pIcoFLAGXa (amino terminal FLAG epitope, Factor Xa cleavage sequence Ile-Glu-Gly-Arg-Gly, thioredoxin with the V5 epitope at the active site, GPI linkage), displayed on COS7 cells (E. coli) [thioredoxin: P0AA25]
Assay: cell-based or functional assay

cells selected on streptavidin magnetic beads with biotin anti-FLAG antibody after incubation with Factor Xa: 0 % of cells
Substance: Factor Xa (enzyme)
